Consider six molecules from patent publication US20250034275A1 (CHIA TAI TIANQING PHARMACEUTICAL GROUP, published 2025).

Residue numbers refer to the chain shown, from its start.

The chains are these.
T1: human Trop-2 (on the surface of human cell lines) (human, UniProt P09758 27-323)
T1 construct: Endogenous Trop-2 on NCI-H322, Capan-1, PC-3, HUVEC, OVCAR-3, HCC38 and HCC1806 cells; also called TACSTD2
T1 sequence: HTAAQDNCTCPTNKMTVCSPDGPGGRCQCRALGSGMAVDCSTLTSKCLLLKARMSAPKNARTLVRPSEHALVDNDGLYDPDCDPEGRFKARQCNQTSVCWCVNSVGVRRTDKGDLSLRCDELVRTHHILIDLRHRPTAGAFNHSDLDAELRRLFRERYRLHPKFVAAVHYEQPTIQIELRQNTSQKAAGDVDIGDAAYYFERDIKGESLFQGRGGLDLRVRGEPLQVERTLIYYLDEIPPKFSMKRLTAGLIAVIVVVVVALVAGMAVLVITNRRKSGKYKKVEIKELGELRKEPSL

T2: human Trop-2-His (human, UniProt P09758 27-274, limits assumed)
T2 construct: by analogy with the macaque construct it is probably the extracellular domain with a His tag; also called Trop-2-His protein
T2 sequence: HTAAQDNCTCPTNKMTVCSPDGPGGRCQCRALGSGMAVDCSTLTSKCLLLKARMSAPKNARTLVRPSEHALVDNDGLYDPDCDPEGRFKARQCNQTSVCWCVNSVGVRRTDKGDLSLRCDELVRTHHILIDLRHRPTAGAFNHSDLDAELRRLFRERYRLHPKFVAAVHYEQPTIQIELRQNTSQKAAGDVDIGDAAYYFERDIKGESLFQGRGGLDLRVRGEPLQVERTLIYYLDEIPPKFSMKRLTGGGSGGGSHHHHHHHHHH

T3: Macaque Trop-2-His (macaque, UniProt P09758 27-274 (human entry))
T3 construct: Extracellular domain of macaque Trop-2 recombinantly linked to His; also called monkey Trop-2-His protein; monkey Trop-2
T3 chain: T2 sequence with M36V, S67N, I204V

B1: hz-Ab2-1.3 (antibody, human IgG1, kappa, V domains shown)
VH: QVQLQESGPGLVKPSETLSLTCTVSGFSLTYYGIDWIRQPPGKGLEWIGVIWGSGNTKYNSALKSRVTISKDNSKSQFSLKLSSVTAADTAVYYCARFYEGFAYWGQGTLVTVSS
VL: DIQMTQSPSSLSASVGDRVTITCKASQDINSYLSWFQQKPGKAPKTLIYRANRLVEGVPSRFSGSGSGQDYTLTISSLQPEDFATYYCLQYDEFPLTFGQGTKVEIKR
notes: Humanized antibody
B2: hz-Ab2-2.4 (antibody, human IgG1, kappa, V domains shown)
VH: B1 VH with F78V, S79Y
VL: B1 VL with K24R, Y71F, F94Y
notes: Humanized antibody
B3: hz-Ab2-1.4 (antibody, human IgG1, kappa, V domains shown)
VH: B1 VH with F78V, S79Y
VL: B1 VL
notes: Humanized antibody
B4: hz-Ab21-1.1 (antibody, human IgG1, kappa, V domains shown)
VH: EVQLVESGGGLVKPGGSLRLSCAASGFTLRNYGVHWVRQAPGKGLEWVGVIWSSGTTDYAAPVKGRFTISKDNSKNTLYLQMNSLKTEDTAVYYCTRDGDYDYYTMDYWGQGTLVTVSS
VL: EIVLTQSPATLSLSPGERATLSCRASKSVSTSAYSYIHWYQQKPGQAPRLLIYLTSNLESGIPARFSGSGSGTDFTLTISSLEPEDFAVYYCQHSRELPYTFGQGTKVEIKR
notes: Humanized antibody
B5: hz-Ab21-1.2 (antibody, human IgG1, kappa, V domains shown)
VH: B4 VH with A60N, P62A, V63F, K64I, G65S
VL: B4 VL
notes: Humanized antibody
B6: ch-Ab21 (antibody, human IgG1, kappa, V domains shown)
VH: EVQLKQSGPGLVQPSQSLSITCTVSGFSLRNYGVHWVRQSPGKGLEWLGVIWSSGTTDYNAAFISRLSITKDNSKSQVFFKMNSLQVDDTAIYNCARDGDYDYYTMDYWGQGTSVTVSS
VL: AIVLTQSPASLAVSLGQRATISCRASKSVSTSAYSYIHWYQQKPGQPPKLLIYLTSNLESGVPARFSGSGSGTDFTLNIHPVEEEDAATYYCQHSRELPYTFGGGTKLEIKR
notes: Mouse VH/VL on human IgG1 and human kappa constant regions; also called chimeric antibody of Ab21

One assay deals with T1, human Trop-2 (on the surface of human …). As to the kind of experiment: flow cytometry, HCC38 cells. The method, then:
(§1) Tumor cells expressing Trop-2 were prepared into a cell suspension (0.5-1×10⁶ cells/mL) using the FACS buffer (Miltenyi Biotec, 130-091-221), and the cell suspension was added to a 96-well V-bottom plate at 100 μL/well. After centrifugation and removal of the supernatant, the test antibodies diluted with the FACS buffer to different concentrations (0.006 nM-100 nM) were each added at 50 μL/well. The mixture was incubated in the dark in a 4° C. refrigerator for 1 h. The plate was then washed 3 times with the FACS buffer by centrifugation at 300 g, and Alexa Fluor 488 goat anti-human IgG (H+L) (Bio-legend, 409304, 1:500 dilution) at working concentration was added. The mixture was incubated in the dark in a 4° C. refrigerator for 40 min. The plate was then washed 3 times with the FACS buffer by centrifugation at 300 g, the geometric mean fluorescence intensity (MFI) was measured on a Sartorius iQue3 flow cytometer, and the binding EC₅₀ values of the antibodies for tumor cells with different Trop-2 expression levels were calculated
On to B1, for which a half-maximal response (EC50) required 0.65 nM. This counts as sub-nanomolar.

In turn, B2 yielded an EC50 of 0.45 nM.

Molecule B3 registered a concentration giving a half-maximal response (EC50) of 1.2 nM.

For B4, the EC50 worked out at 0.55 nM. This EC50 lies about 2.2-fold lower than the previous one.

On to B5, for which the EC50 worked out at 0.66 nM. This EC50 and that of the molecule before are within 1.5-fold of each other.

B6 registered an EC50 of 0.64 nM.

The target of the next assay is T2, human Trop-2-His. As to the kind of experiment: SPR (Biacore 8K), antibody captured, Trop-2-His as analyte. From the text: The affinity of antibodies for human Trop-2-His was detected in the form of antibody capturing. The antibody was affinity-captured by a CM5 (Cat. #29149603, GE) biosensor chip conjugated with an anti-human IgG antibody (from human antibody capture kit, Cat. #29234600, GE), then the antigen human Trop-2-His flowed on the surface of the chip, and a Biacore 8K instrument was used for detecting reaction signals in real time to obtain association and dissociation curves. After dissociation was completed for each assay cycle, the chip was washed clean and regenerated with a regeneration buffer, 3M MgCl₂ (from human antibody capture kit, Cat. #29234600, GE). The association and dissociation curves were collected by Biacore 8K Control Software 3.0 in real time, and the data were analyzed by Biacore Insight Evaluation Software 3.0. The data were fitted using a Langmuir 1:1 model after double subtraction (namely, in each cycle, the contrast channel signal was subtracted from the experimental channel signal, and the sample signal was subtracted from the blank signal), and the association rate constant Ka, the dissociation rate constant Kd, and the equilibrium constant KD were calculated.
Turning to B1, the Kd came to 16.5 nM, the koff was found to be 0.0165 s⁻¹ and the kon was 1e+06 M⁻¹ s⁻¹.

In turn, B2 returned a dissociation constant (Kd) of 11.6 nM, a koff of 0.00483 s⁻¹ and a kon of 415000 M⁻¹ s⁻¹.

B3 returned a Kd of 2.32 nM, a koff of 0.00284 s⁻¹ and an on-rate (kon) of 1.22e+06 M⁻¹ s⁻¹.

B4 gave a dissociation constant Kd of 1.2 nM, a dissociation rate constant (koff) of 0.000514 s⁻¹ and an on-rate (kon) of 429000 M⁻¹ s⁻¹.

Turning to B5, the dissociation constant Kd worked out at 0.973 nM, the off-rate constant (koff) is 0.000438 s⁻¹ and the kon turned out to be 450000 M⁻¹ s⁻¹.

Another assay has as its target T2, human Trop-2-His. As to the kind of experiment: ELISA, plate-coated human Trop-2-His. Here is the method:
(§2) After the liquid was discarded, 2% BSA (SIGMA, B2064-100G) diluted with PBS was added at 300 μL/well for blocking, and the mixture was incubated at 37° C. for 2 h. After the blocking was completed, the blocking buffer was discarded, the plate was washed 3 times with PBST buffer (pH 7.4 PBS containing 0.1% tween-20), the antibody solution diluted in a gradient was added at 100 μL/well, and the mixture was incubated at 37° C. for 1 h. After the incubation was completed, the plate was washed 3 times with PBST, the goat anti-human IgG (H+L) (JacksonImmunoResearch, 109-035-098, 1:5000 dilution) was added at 100 μL/well, and the mixture was incubated at 37° C. for 1 h. After the plate was washed 3 times with PBST, a TMB chromogenic substrate (TIANGEN, PA107-01) was added at 100 μL/well. The mixture was incubated at room temperature for 10-15 min, and then 1 M H₂SO₄ was added at 50 μL/well to terminate the reaction. The absorbance values at 450 nm were taken using a microplate reader. The binding curves of antibodies for antigen were fitted using software, and the EC₅₀ values were calculated.
A general note: In an ELISA, binding on a coated surface is turned into a signal by an enzyme label.
Take B1: the concentration giving a half-maximal response (EC50) came out at 0.081 nM. This counts as picomolar.

The molecule B2 returned a concentration for a half-maximal effect (EC50) of 0.1 nM.

As for B3, the half-maximal effective concentration (EC50) was 0.068 nM.

In turn, B4 had an EC50 of 0.162 nM. This EC50 is about 2.4-fold higher than that of the molecule before.

Turning to B5, the response was half-maximal at 0.248 nM (EC50).

Turning to B6, the response was half-maximal at 0.165 nM (EC50). Compared with the last molecule, the EC50 is about 1.5-fold lower.

The target in another assay is T1, human Trop-2 (on the surface of human …). Put plainly: flow cytometry, HCC1806 cells. Here is the method: as §1
For orientation: Flow cytometry measures light scatter and fluorescence of single cells or particles in a stream.
As for B1, the response was half-maximal at 1.22 nM (EC50). This counts as single-digit nanomolar.

In turn, B2 displayed an EC50 of 1.23 nM.

Regarding B3, the 50% effective concentration (EC50) turned out to be 1.07 nM.

B4 came in with a concentration giving a half-maximal response (EC50) of 0.64 nM.

As to B5, the half-maximal effective concentration (EC50) worked out at 1.23 nM.

Regarding B6, the EC50 stood at 0.65 nM. This EC50 lies about 1.9-fold lower than the previous one.

The target is the same in the next assay. As to the kind of experiment: cell-based or functional assay.
For B1, the “ADCC reporter (Jurkat-CD16a v158-NFAT-luciferase), target cell H322, EC50” value (“ADCC reporter … target cell H322, EC50” below) came to 0.17 nM and the “ADCC reporter (Jurkat-CD16a v158-NFAT-luciferase), target cell HCC1806, EC50” value (“ADCC reporter … target cell HCC1806, EC50” below) stood at 0.33 nM.

Turning to B2, the “ADCC reporter … target cell H322, EC50” value is 0.66 nM and the “ADCC reporter … target cell HCC1806, EC50” value came out at 1.51 nM.

Regarding B3, the “ADCC reporter … target cell H322, EC50” value stood at 0.34 nM and the “ADCC reporter … target cell HCC1806, EC50” value stood at 0.39 nM.

In the case of B6, the “ADCC reporter … target cell H322, EC50” value was 0.04 nM and the “ADCC reporter … target cell HCC1806, EC50” value came to 0.08 nM.

The target is the same in another assay. Put plainly: flow cytometry, OVCAR-3 cells. The method, then: as §1
The molecule B4 yielded a concentration giving a half-maximal response (EC50) of 0.62 nM. This counts as sub-nanomolar.

B5 yielded an EC50 of 0.67 nM.

With B6, the EC50 was 1.02 nM.

The next assay shares this target. As to the kind of experiment: cell-based or functional assay. This is another data set of the same source.
As for B1, the “ADCC, PBMC killing (LDH), H322, EC50” value was 0.02 nM; the “ADCC, PBMC killing (LDH), H322, Maximum killing (%)” value (shortened to “ADCC … H322, Maximum killing (%)”) amounted to 48.1%; the “ADCC, PBMC killing (LDH), HCC1806, EC50” value was determined as 0.06 nM; the “ADCC, PBMC killing (LDH), HCC1806, Maximum killing (%)” value (“ADCC … HCC1806, Maximum killing (%)” below) amounted to 37%.

Turning to B2, the “ADCC, PBMC killing (LDH), H322, EC50” value came out at 0.07 nM; the “ADCC … H322, Maximum killing (%)” value stood at 46.7%; the “ADCC, PBMC killing (LDH), HCC1806, EC50” value was 0.15 nM; the “ADCC … HCC1806, Maximum killing (%)” value is 33.3%.

Regarding B3, the “ADCC, PBMC killing (LDH), H322, EC50” value was determined as 0.01 nM; the “ADCC … H322, Maximum killing (%)” value was 48.7%; the “ADCC, PBMC killing (LDH), HCC1806, EC50” value is 0.02 nM; the “ADCC … HCC1806, Maximum killing (%)” value amounted to 34.8%.

B6: the “ADCC, PBMC killing (LDH), H322, EC50” value stood at 0.13 nM; the “ADCC … H322, Maximum killing (%)” value came to 54%; the “ADCC, PBMC killing (LDH), HCC1806, EC50” value came out at 0.03 nM; the “ADCC … HCC1806, Maximum killing (%)” value was 40.3%.

Another assay deals with T3, Macaque Trop-2-His. Put plainly: ELISA, plate-coated macaque Trop-2-His. Here is the method:
as §2, with “times with the PBST buffer” for “times with PBST buffer”
On to B1, for which the EC50 turned out to be 0.068 nM.

Consider B2, for which the EC50 was found to be 0.07 nM.

On to B3, for which the half-maximal effective concentration (EC50) was found to be 0.053 nM.

Molecule B4 returned an EC50 of 0.098 nM.

In turn, B5 showed a concentration for a half-maximal effect (EC50) of 0.086 nM.

Molecule B6 returned an EC50 of 0.093 nM.

As a reminder, the EC50 is the concentration needed to bring the measured effect to its halfway point. A word on the Kd: it is the equilibrium constant for the complex coming apart. Read a high Kd as lower affinity. As usually defined, the koff is the first-order rate constant of dissociation. By kon is commonly meant the rate constant with which the complex forms.
